From article PMC7952371 come the findings set out here.

The test has as its target T1, mixed lineage pseudokinase ligand (human (endogenous in post-mortem brain grey matter)), Q8NB16.
T1 chain: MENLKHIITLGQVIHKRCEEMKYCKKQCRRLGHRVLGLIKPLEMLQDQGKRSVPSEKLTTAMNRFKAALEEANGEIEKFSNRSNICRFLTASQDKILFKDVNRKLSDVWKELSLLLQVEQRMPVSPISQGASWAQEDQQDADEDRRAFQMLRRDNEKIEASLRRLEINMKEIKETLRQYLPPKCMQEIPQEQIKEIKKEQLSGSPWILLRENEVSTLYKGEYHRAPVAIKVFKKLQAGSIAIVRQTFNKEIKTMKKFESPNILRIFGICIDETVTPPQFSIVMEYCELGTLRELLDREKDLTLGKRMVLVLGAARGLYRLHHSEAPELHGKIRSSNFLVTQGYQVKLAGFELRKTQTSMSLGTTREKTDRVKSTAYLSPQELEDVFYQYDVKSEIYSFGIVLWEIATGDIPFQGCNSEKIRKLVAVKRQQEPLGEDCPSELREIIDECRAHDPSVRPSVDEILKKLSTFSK
Kind of test: non-reducing gel electrophoresis and Western blot; MS grey matter extracted in native conditions (TBS, 0.1% Triton X-100); 3-8% Tris-acetate gels in non-reducing conditions; blot for MLKL. Conditions: remark: other sources report otherwise. (Immunoblotting shows a protein as a band on a membrane.)

B1: mixed lineage pseudokinase ligand, Q8NB16 1-471 (natural protein)
chain: MENLKHIITLGQVIHKRCEEMKYCKKQCRRLGHRVLGLIKPLEMLQDQGKRSVPSEKLTTAMNRFKAALEEANGEIEKFSNRSNICRFLTASQDKILFKDVNRKLSDVWKELSLLLQVEQRMPVSPISQGASWAQEDQQDADEDRRAFQMLRRDNEKIEASLRRLEINMKEIKETLRQYLPPKCMQEIPQEQIKEIKKEQLSGSPWILLRENEVSTLYKGEYHRAPVAIKVFKKLQAGSIAIVRQTFNKEIKTMKKFESPNILRIFGICIDETVTPPQFSIVMEYCELGTLRELLDREKDLTLGKRMVLVLGAARGLYRLHHSEAPELHGKIRSSNFLVTQGYQVKLAGFELRKTQTSMSLGTTREKTDRVKSTAYLSPQELEDVFYQYDVKSEIYSFGIVLWEIATGDIPFQGCNSEKIRKLVAVKRQQEPLGEDCPSELREIIDECRAHDPSVRPSVDEILKKLSTFSK
One may read the stoichiometry N as the number of molecules, sites or subunits per partner or assembly. Regarding B1, the stoichiometry N was determined as 4.
